Laboratory results taken from US20240024504A1, “SITE-SELECTIVE LYSINE ACETYLATION OF HUMAN IMMUNOGLOBULIN G AND IgG-RELATED PRODUCTS FOR IMMUNOTHERAPY” (The Chinese University of Hong Kong, priority 2022, published 2024).

Tests used:
His-tagged human PD-L1 = molecular target: T1, His-tagged human PD-L1 (Homo sapiens, UniProt Q9NZQ7); assay: Pull-down assay of modified atezolizumab on PD-L1 loaded Ni-NTA resins; type: binding; settings: PD-L1 immobilized on Ni-NTA resins
T1 construct: purchased GenScript
Description: (FIG. 16A) A pull-down experiment in vitro. […] (FIG. 16B) FITC labeled PD-L1 was immobilized on Ni-NTA agarose resin through polyhistidine tag.
Ni-NTA agarose resins were resuspended and 20 μL resins were pipetted into a 1.5 mL tube. After washing with PBS-T buffer (phosphate buffered saline supplemented with 0.1% Tween-20), His-tagged human PD-L1 (200 nM) was immobilized on Ni-NTA resins in 100 μL buffer solution (20 mM imidazole, pH 7.4 PBS-T) at room temperature for 1 h with shaking. The binding solution was removed by centrifugation and the resins were washed three times with pH 7.4 PBS-T buffer. Then Atezo-TAMRA (100 nM) was incubated with the resins in 100 μL buffer solution (20 mM imidazole, pH 7.4 PBS-T) for 1 h with shaking. Next, the resins were washed three times with PBS-T and eluted by boiling the beads for 10 min in 2× sample loading buffer. The samples were analyzed by SDS-PAGE. As a negative control, same amount of polyclonal IgG was incubated with the PD-L1 loaded resins. For confocal microscopy, His-tagged human PD-L1 was firstly labelled by FITC.

[1] = tested on: PD-L1 positive (PC12) cells; assay: Immunofluorescence of modified atezolizumab, confocal microscopy; type: cell-based; settings: 150 nM, PBS pH 7.4, 37° C., 15 min
Description: FIG. 5A-5B Acetylation of therapeutic antibody and immunofluorescence. (FIG. 5A) Acetylation reaction monitored by SDS-PAGE and fluorescent scanning. Reaction condition: 4 μM antibodies, 24 μM F1, PBS buffer (pH 7.4), at 37° C. for 1 h. The reactions were quenched with 1% SDS and DBCO-TAMRA was added at room temperature for 1.5 h for SPAAC reaction before SDS-PAGE and in-gel fluorescent imaging. Lane M, molecular weight marker; lane 1, M-trastuzumab; lane 2, M-cetuximab; lane 3, M-daratumumab; […], reduced results of […]. […] Incubation conditions: Cells were incubated with modified antibodies (150 nM) in PBS buffer (pH 7.4) at 37° C. for 15 min before the fixation of cells.

IgG Fc = assay: Competition between reactive peptide (F1) and non-reactive peptide; type: biochemical, human; settings: non-reactive peptide added to the reaction of F1 and IgG
Description: (FIG. 3A) The structures of peptides used in this work. FITC moiety was added at the N-termini of the peptides to MST analysis.

T1 sequence (Q9NZQ7 19-290): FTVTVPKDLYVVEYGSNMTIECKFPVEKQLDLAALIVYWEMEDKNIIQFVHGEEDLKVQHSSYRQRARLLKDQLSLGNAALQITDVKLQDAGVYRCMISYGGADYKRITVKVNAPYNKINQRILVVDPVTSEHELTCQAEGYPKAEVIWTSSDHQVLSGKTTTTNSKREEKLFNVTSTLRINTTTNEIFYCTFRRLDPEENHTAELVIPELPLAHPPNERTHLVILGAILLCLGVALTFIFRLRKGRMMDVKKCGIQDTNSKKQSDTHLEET

Molecule: M-Atezo: atezolizumab azidoacetylated at Lys248 of the Fc by F1 (DBCO-TAMRA tagged for detection)
- binding to PD-L1 (pull-down) (His-tagged human PD-L1): reserved the binding ability to PD-L1
- binding to PD-L1 (pull-down) (His-tagged human PD-L1; listed as acetylated atezolizumab): could still bind its ligand
- binding to cells (immunofluorescence) [1]: maintained their binding with PD-L1 positive (PC12) cells

Molecule: CC(C)C[C@@H]1NC(=O)C(CCC(=O)O)NC(=O)CNC(=O)[C@H](CC(C)C)NC(=O)[C@H](Cc2c[nH]cn2)NC(=O)[C@H](Cc2c[nH]c3ccccc23)NC(=O)[C@H](C)NC(=O)[C@@H](NC(=O)[C@H](CC(=O)O)NC(=O)CCNC(=O)CNC(=S)Nc2ccc(-c3c4ccc(=O)cc-4oc4cc(O)ccc34)c(C(=O)O)c2)CSSC[C@@H](C(=O)N[C@H](C(N)=O)[C@@H](C)O)NC(=O)[C@H](Cc2c[nH]c3ccccc23)NC(=O)[C@H](C(C)C)NC1=O (stereo partly shown) [f-F0]
- effect on the acetylation reaction of F1 and IgG (IgG Fc): abolished the acetylation reaction
